Data published in patent US7803904 (Takeda / Millennium, dated 2010).

Columns and labels:
human α4β7 integrin [1] = biological target: T1, human α4β7 integrin (human, UniProt P13612 34-1032; P26010 20-798); experiment: cell adhesion, FIG. 5 legend
T1 construct: whole, on cells; also called α4β7 on RPMI 8866 cells; α4β7 on HuT 78 cells
Experimental: Clone pcD3huMAd4 (insert from clone 4) or pcD3huMAd20 (insert from clone 20) was transiently transfected into CHO/P cells.
Adhesion of the CHO/P transfectants to RPMI 8866 cells was blocked by preincubation with anti-α4β7 MAb ACT-1, but not by control IgG. […] To further characterize these distinct cDNAs, both clones were completely sequenced.

murine α4β7 integrin [2] = biological target: T2, murine α4β7 integrin (mouse, UniProt Q00651 41-1039; P26011 20-806); experiment: cell adhesion, CHO/P transient transfectants
T2 construct: whole, on cells; Carried by the murine T cell lymphoma TK1; also called α4β7 on TK1 cells
T2 sequence (Q00651 41-1039, chain 1 of 2): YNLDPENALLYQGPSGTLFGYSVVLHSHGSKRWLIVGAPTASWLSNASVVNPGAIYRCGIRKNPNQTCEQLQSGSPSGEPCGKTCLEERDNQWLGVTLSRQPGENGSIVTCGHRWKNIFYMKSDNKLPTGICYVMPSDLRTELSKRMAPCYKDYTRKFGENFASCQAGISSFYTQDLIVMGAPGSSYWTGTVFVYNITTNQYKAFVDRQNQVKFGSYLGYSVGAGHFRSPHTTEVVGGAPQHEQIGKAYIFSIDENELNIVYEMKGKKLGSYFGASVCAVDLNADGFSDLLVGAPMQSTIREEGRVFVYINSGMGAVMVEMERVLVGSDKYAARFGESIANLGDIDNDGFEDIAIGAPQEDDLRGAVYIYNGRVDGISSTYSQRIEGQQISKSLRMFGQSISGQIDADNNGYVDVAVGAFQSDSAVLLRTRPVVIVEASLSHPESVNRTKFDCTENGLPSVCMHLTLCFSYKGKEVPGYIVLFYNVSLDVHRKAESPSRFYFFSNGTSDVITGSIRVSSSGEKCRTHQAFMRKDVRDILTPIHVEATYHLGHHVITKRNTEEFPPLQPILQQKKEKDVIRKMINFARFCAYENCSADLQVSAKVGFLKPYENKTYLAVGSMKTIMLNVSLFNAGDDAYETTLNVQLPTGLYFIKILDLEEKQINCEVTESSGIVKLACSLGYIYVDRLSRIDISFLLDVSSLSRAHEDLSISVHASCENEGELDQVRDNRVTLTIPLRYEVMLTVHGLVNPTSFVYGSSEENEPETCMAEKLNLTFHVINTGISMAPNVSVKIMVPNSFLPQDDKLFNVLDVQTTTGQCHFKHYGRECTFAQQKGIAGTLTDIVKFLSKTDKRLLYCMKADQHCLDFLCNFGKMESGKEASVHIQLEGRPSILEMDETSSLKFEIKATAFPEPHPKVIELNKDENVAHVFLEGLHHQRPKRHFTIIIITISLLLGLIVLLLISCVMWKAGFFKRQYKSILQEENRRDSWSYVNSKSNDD
T2 sequence (P26011 20-806, chain 2 of 2): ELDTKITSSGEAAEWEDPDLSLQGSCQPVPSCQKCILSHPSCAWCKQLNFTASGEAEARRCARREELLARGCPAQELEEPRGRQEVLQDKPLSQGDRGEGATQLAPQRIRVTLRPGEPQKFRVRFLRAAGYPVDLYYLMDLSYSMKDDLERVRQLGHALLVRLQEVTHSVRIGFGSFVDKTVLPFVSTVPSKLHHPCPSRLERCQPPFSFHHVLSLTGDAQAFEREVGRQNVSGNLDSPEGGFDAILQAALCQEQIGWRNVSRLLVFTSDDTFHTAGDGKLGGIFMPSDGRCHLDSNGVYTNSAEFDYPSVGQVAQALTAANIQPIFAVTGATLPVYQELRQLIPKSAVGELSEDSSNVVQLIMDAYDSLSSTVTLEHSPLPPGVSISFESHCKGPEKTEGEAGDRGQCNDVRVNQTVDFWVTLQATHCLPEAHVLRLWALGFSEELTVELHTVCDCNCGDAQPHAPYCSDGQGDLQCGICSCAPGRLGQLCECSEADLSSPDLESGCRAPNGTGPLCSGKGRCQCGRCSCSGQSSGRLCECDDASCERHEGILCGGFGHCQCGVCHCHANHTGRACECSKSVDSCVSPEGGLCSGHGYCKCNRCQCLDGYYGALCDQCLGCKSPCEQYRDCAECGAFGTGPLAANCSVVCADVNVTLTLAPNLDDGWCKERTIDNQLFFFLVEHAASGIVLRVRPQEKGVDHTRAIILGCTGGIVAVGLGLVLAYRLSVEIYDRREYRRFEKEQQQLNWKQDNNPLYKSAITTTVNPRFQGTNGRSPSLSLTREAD

human α4β7 integrin [3] = biological target: T1, human α4β7 integrin; experiment: cell adhesion, FIG. 4A
Experimental: (§1) Where DATK 32 was used in a preincubation with a cell line, prior to the start of the assay, the supernatant or buffer present in the wells (containing the transfectants) was aspirated in order to obtain volume of 0.5 ml total for the adhesion assay.
(§2) Assays were fixed as described above. Plates were washed by gentle inversion in a large beaker of phosphate buffered saline (PBS), followed by inversion in a beaker of PBS with 1.5% gluteraldehyde for fixation for a minimum of 1 hour. Adhesion was assessed by counting both lymphocytes and CHO cells in a field at 20× magnification. For each assay, the number of lymphocytes bound per CHO/P cell was averaged as a minimum of four fields with standard error. Results in each case are from one of three experiments performed with similar results.
(§3) Murine MAdCAM-1 specifically binds lymphocytes expressing α4β7 (and not α4β1). […] Binding of these cell lines was compared to that of transiently transfected CHO/P cells expressing murine MAdCAM-1 and human VCAM-1.

human α4β1 integrin [4] = biological target: T3, human α4β1 integrin (human, UniProt P13612 34-1032; P05556 21-798); experiment: functional adhesion assay, CHO/P transfectants, 4° C (FIG. 4B)
T3 construct: whole, on cells; Carried by Jurkat and Ramos cells (α4β1, not α4β7); also called α4β1 on Jurkat cells; α4β1 on Ramos cells
T3 sequence (P13612 34-1032, chain 1 of 2): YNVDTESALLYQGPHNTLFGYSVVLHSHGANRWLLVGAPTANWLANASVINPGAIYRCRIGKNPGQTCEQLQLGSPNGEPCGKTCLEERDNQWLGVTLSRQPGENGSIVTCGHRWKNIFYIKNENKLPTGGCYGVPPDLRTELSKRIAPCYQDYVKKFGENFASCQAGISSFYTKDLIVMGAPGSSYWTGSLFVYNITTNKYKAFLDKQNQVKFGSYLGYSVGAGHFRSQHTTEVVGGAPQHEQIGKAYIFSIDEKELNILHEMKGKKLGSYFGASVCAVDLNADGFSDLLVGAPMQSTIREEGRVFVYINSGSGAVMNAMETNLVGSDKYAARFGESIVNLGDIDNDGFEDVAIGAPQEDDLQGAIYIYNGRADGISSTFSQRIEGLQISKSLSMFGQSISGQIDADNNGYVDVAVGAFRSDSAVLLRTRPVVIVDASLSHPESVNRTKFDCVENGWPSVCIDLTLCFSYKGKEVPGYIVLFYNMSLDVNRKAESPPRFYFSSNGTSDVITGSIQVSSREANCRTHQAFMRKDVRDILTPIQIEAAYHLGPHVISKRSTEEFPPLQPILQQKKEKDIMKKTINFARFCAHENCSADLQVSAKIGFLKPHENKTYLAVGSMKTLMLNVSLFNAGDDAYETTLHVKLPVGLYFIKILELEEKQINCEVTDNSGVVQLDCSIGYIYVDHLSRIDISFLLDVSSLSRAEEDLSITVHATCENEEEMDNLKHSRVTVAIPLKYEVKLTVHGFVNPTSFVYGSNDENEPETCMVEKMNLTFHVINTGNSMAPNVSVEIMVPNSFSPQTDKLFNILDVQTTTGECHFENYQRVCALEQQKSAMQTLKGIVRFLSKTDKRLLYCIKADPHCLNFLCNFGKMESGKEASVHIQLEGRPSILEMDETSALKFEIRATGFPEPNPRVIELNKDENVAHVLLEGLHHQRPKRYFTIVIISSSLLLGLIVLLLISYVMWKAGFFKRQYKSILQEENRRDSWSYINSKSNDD
T3 sequence (P05556 21-798, chain 2 of 2): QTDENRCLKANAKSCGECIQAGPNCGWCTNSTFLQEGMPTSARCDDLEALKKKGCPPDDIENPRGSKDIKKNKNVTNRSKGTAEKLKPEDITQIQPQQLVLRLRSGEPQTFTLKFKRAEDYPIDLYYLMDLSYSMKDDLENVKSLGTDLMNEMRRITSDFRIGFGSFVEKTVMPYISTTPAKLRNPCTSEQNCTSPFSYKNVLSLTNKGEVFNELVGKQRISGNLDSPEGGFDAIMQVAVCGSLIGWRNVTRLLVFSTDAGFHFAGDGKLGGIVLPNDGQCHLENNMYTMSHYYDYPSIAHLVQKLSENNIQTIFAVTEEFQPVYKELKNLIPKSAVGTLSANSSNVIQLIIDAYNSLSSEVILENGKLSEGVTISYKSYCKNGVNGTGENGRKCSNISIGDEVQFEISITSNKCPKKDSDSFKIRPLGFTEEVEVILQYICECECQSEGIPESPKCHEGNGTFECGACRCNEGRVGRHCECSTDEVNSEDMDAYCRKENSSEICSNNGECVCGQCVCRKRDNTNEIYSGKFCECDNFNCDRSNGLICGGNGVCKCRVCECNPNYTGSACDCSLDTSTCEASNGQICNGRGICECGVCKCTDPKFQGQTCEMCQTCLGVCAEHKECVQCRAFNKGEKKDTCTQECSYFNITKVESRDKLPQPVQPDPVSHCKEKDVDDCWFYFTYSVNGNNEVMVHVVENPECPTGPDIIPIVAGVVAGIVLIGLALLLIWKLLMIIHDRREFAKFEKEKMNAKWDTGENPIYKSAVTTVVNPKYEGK
Experimental: as §1, §2, §3

murine α4β7 integrin [5] = biological target: T2, murine α4β7 integrin; experiment: cell adhesion, L1-2 stable transfectants
human α4β7 integrin [6] = biological target: T1, human α4β7 integrin; experiment: cell adhesion assay, CHO/P transfectants
human α4β1 integrin [7] = biological target: T3, human α4β1 integrin; experiment: cell adhesion, FIG. 4B legend
Experimental: as §1, §2, §3

human α4β1 integrin [8] = biological target: T3, human α4β1 integrin; experiment: cell adhesion assay, CHO/P transfectants

T1 sequence (P13612 34-1032, chain 1 of 2): as the sequence (P13612 34-1032, chain 1 of 2) above
T1 sequence (P26010 20-798, chain 2 of 2): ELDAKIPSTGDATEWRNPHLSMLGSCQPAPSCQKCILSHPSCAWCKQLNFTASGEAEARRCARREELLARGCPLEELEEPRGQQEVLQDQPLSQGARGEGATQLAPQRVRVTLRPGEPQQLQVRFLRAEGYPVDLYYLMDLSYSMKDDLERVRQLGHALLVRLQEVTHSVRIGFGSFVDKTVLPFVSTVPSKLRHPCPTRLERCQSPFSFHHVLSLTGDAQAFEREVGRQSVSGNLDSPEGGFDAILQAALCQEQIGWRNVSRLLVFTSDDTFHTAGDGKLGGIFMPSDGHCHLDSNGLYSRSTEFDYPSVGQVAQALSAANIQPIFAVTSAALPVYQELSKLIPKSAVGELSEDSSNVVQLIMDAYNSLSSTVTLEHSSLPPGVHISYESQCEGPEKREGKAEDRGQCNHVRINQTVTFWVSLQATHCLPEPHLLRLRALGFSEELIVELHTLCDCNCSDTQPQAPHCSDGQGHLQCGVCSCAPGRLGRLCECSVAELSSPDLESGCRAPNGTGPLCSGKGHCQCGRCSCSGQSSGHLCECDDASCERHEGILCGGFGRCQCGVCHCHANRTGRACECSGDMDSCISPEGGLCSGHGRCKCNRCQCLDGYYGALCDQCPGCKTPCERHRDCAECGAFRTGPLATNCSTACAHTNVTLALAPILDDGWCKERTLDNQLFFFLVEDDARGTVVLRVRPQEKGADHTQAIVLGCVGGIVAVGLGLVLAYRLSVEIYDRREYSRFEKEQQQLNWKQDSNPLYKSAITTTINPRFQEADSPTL

B1: human MAdCAM-1 (cDNA clone 20) (receptor)
chain: QSLQVKPLQVEPPEPVVAVALGASRQLTCRLACADRGASVQWRGLDTSLGAVQSDTGRSVLTVRNASLSAAGTRVCVGSCGGRTFQHTVQLLVYAFPDQLTVSPAALVPGDPEVACTAHKVTPVDPNALSFSLLVGGQELEGAQALGPEVQEEEEEPQGDEDVLFRVTERWRLPPLGTPVPPALYCQATMRLPGLELSHRQAIPVLHSPTSPEPPDTTSPESPDTTSPESPDTTSQEPPDTTSPEPPDKTSPEPAPQQGSTHTPRSPGSTRTRRPEISQAGPTQGEVIPTGSSKPAGDQLPAALWTSSAVLGLLLLALPTYHLWKRCRHLAEDDTHPPASLRLLPQVSAWAGLRGTGQVGISPS
notes: Isoform with a shorter mucin domain, expressed on CHO/P cells; also called pcD3huMAd20
binding result (human α4β7 integrin [1]): binds | binding result (murine α4β7 integrin [2]): binds

B2: murine MAdCAM-1 (receptor, mouse, UniProt Q61826 22-405, looked up)
chain: QSFQVNPPESEVAVAMGTSLQITCSMSCDEGVARVHWRGLDTSLGSVQTLPGSSILSVRGMLSDTGTPVCVGSCGSRSFQHSVKILVYAFPDQLVVSPEFLVPGQDQVVSCTAHNIWPADPNSLSFALLLGEQRLEGAQALEPEQEEEIQEAEGTPLFRMTQRWRLPSLGTPAPPALHCQVTMQLPKLVLTHRKEIPVLQSQTSPKPPNTTSAEPYILTSSSTAEAVSTGLNITTLPSAPPYPKLSPRTLSSEGPCRPKIHQDLEAGWELLCEASCGPGVTVRWTLAPGDLATYHKREAGAQAWLSVLPPGPMVEGWFQCRQDPGGEVTNLYVPGQVTPNSSSTVVLWIGSLVLGLLALVFLAYRLWKCYRPGPRPDTSSCTHL
notes: whole, on cells; Transiently expressed on CHO/P cells; also called pCDMAD-7
binding result (human α4β7 integrin [3]): binds | binding result (human α4β1 integrin [4]): no binding

B3: human MAdCAM-1 (cDNA clone 4) (receptor)
chain: QSLQVKPLQVEPPEPVVAVALGASRQLTCRLACADRGASVQWRGLDTSLGAVQSDTGRSVLTVRNASLSAAGTRVCVGSCGGRTFQHTVQLLVYAFPDQLTVSPAALVPGDPEVACTAHKVTPVDPNALSFSLLVGGQELEGAQALGPEVQEEEEEPQGDEDVLFRVTERWRLPPLGTPVPPALYCQATMRLPGLELSHRQAIPVLHSPTSPEPPDTTSPEPPNTTSPESPDTTSPESPDTTSQEPPDTTSQEPPDTTSQEPPDTTSPEPPDKTSPEPAPQQGSTHTPRSPGSTRTRRPEISQAGPTQGEVIPTGSSKPAGDQLPAALWTSSAVLGLLLLALPTYHLWKRCRHLAEDDTHPPASLRLLPQVSAWAGLRGTGQVGISPS
notes: also called pcD3huMAd4; pCDhuMAd4
binding result (murine α4β7 integrin [5]): binds | binding result (human α4β1 integrin [4]): no binding | binding result (human α4β7 integrin [1]): binds

B4: seven domain human VCAM-1 (receptor, UniProt P19320 25-739, looked up)
chain: FKIETTPESRYLAQIGDSVSLTCSTTGCESPFFSWRTQIDSPLNGKVTNEGTTSTLTMNPVSFGNEHSYLCTATCESRKLEKGIQVEIYSFPKDPEIHLSGPLEAGKPITVKCSVADVYPFDRLEIDLLKGDHLMKSQEFLEDADRKSLETKSLEVTFTPVIEDIGKVLVCRAKLHIDEMDSVPTVRQAVKELQVYISPKNTVISVNPSTKLQEGGSVTMTCSSEGLPAPEIFWSKKLDNGNLQHLSGNATLTLIAMRMEDSGIYVCEGVNLIGKNRKEVELIVQEKPFTVEISPGPRIAAQIGDSVMLTCSVMGCESPSFSWRTQIDSPLSGKVRSEGTNSTLTLSPVSFENEHSYLCTVTCGHKKLEKGIQVELYSFPRDPEIEMSGGLVNGSSVTVSCKVPSVYPLDRLEIELLKGETILENIEFLEDTDMKSLENKSLEMTFIPTIEDTGKALVCQAKLHIDDMEFEPKQRQSTQTLYVNVAPRDTTVLVSPSSILEEGSSVNMTCLSQGFPAPKILWSRQLPNGELQPLSENATLTLISTKMEDSGVYLCEGINQAGRSRKEVELIIQVTPKDIKLTAFPSESVKEGDTVIISCTCGNVPETWIILKKKAETGDTVLKSIDGAYTIRKAQLKDAGVYECESKNKVGSQLRSLTLDVQGRENNKDYFSPELLVLYFASSLIIPAIGMIIYFARKANMKGSYSLVEAQKSKV
notes: whole, on cells; Transiently expressed on CHO/P cells; also called pCD3VCAM
binding result (human α4β7 integrin [6]): no binding | binding result (human α4β1 integrin [7]): binds

B5: macaque MAdCAM-1 (cDNA clone 31D) (receptor)
chain: QSLQVKPLQVEPPEPVVAVALGASRQLTCRLDCADRGATVQWRGLDTSLGAVQSDAGRSVLTVRNASLSAAGTRVCVGSCGGRTFQHTVRLLVYAFPDQLTISPAALVPGDPEVACTAHKVTPVDPNALSFSLLLGDQELEGAQALGPEVEEEEEEPQEEEDVLFRVTERWRLPTLATPVLPALYCQATMRLPGLELSHRQAIPVLHGPTSREPPDTTSPEPRAATSPETTPQQGSTHSPRSPGSTRTCRPEISQAGPTQGEVIPTGSSKPTGDQLPAALWTSSAVLGLLLLALPTYHLWKRCRHLAEDGAHPPASLSSQPFPL
notes: Expressed on CHO/P or L1-2 cells; also called pcD3pMAd; pCD3PMad
binding result (human α4β1 integrin [8]): no binding
